Laboratory results taken from patent publication US7026125, “Heterodimers of retinoid X receptors (RXRS) and other steroid hormone receptors” (Ligand Pharmaceuticals).

Columns and labels:
[1] = molecular target: Flag-TRα/RXRα heterodimer (UniProt P10827-2;P19793 P10827-2:1-410,P19793:1-462); assay: EMSA; inhibited by anti-Flag; details: tags: N-terminal Flag on TRα; label: 32P
Procedure: (b) Effect of anti-Flag-TRα antibody on binding of the slow migrating complex. In vitro synthesized Flag-TRα (F-TRα) protein was incubated with in vitro synthesized RXRα protein in the presence or absence of anti-Flag antibody. The effect of antibody on DNA binding of the slow migrating complex was analyzed as described in FIG. 2a. For control, the receptor mixture was also incubated with preimmune serum (NI). The effect of anti-Flag antibody on DNA binding of Flag-RXRα, RXRα, Flag-TRα, and TRα was also analyzed. For comparison, anti-Flag antibody/Flag-RXRα-TRα interaction was run on the same gel (lanes 7–10).
In vitro translated receptor protein (1 to 5 μl depending on the translation efficiency) was incubated with the ^32P-labeled oligonucleotides in a 20-μl reaction mixture containing 10 mM hepes buffer, pH 7.9, 50 mM KCl, 1 mM DTT, 2.5 mM MgCl, 10% glycerol, and 1 μg of poly(dI-dC) at 25° C. for 20 minutes. In general, relative low receptor concentration was used to obtain the clear effect of heterodimer formation. The reaction mixture was then loaded on a 5% nondenaturing ployacrylamide gel containing 0.5×TBE (1×TBE=0.089 M Tris-borate, 0.089 M boric acid, and 0.002 M EDTA). […]

[2] = molecular target: Flag-RARγ/RXRα heterodimer (UniProt P13631;P19793 P13631:1-454,P19793:1-462); assay: EMSA; inhibited by anti-Flag; details: tags: N-terminal Flag on RARγ; label: 32P
Chain of Flag-RARγ/RXRα heterodimer (P19793 whole entry, chain 2 of 2, one chain of several): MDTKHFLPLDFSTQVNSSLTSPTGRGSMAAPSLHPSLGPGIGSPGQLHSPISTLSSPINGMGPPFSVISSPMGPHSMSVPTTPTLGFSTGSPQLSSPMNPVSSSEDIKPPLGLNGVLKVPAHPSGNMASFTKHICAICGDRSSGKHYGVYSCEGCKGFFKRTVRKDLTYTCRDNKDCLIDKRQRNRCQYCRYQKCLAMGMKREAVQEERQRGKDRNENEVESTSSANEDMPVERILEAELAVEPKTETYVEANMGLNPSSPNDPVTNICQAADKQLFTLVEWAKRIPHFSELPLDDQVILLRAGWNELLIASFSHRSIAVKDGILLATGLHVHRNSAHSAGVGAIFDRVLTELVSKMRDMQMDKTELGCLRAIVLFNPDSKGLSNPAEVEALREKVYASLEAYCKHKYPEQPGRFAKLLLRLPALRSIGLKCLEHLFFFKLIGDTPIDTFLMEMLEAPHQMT
Procedure: (§1) In vitro translated receptor protein (1 to 5 μl depending on the translation efficiency) was incubated with the ^32P-labeled oligonucleotides in a 20-μl reaction mixture containing 10 mM hepes buffer, pH 7.9, 50 mM KCl, 1 mM DTT, 2.5 mM MgCl, 10% glycerol, and 1 μg of poly(dI-dC) at 25° C. for 20 minutes. In general, relative low receptor concentration was used to obtain the clear effect of heterodimer formation. The reaction mixture was then loaded on a 5% nondenaturing ployacrylamide gel containing 0.5×TBE (1×TBE=0.089 M Tris-borate, 0.089 M boric acid, and 0.002 M EDTA). To analyze the effect of RXRα or the nuclear proteins on receptor DNA binding activity, RXRα or the cell extracts were preincubated with receptor protein at room temperature for 10 minutes before performing the DNA binding assay. When antibody was used, 1 μl of the antiserum was incubated with the specific translation products at room temperature for 45 minutes before performing the experiments described above.

[3] = molecular target: Flag-RXRα/TRα heterodimer (UniProt P19793;P10827-2 P19793:1-462,P10827-2:1-410); assay: EMSA; strongly reduced by anti-Flag; details: tags: N-terminal Flag on RXRα; label: 32P
Chain of Flag-RXRα/TRα heterodimer (P19793 whole entry, one chain of several): as the sequence (P19793 whole entry, chain 2 of 2, one chain of several) above
Procedure: As a control, receptor mixtures were also incubated with preimmune serum (NI).
as §1

[4] = molecular target: T1, RARα (Homo sapiens, UniProt P10276 P10276:1-462); assay: EMSA; no detectable complex under conditions used; details: label: 32P
T1 sequence: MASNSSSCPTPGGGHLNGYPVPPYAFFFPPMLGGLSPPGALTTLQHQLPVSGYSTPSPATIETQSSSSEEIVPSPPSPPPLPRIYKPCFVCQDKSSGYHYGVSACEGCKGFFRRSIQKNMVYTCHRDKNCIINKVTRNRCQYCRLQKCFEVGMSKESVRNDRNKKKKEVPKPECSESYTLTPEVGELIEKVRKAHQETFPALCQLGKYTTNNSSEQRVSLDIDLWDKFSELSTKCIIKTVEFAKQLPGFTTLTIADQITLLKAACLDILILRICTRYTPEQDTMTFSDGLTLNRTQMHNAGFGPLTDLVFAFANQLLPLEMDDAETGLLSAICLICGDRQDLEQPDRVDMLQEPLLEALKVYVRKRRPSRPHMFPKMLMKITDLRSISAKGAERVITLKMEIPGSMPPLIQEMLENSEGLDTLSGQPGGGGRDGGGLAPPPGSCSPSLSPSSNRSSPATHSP
Procedure: (§2) (a) In vitro synthesized TRα, TRβ, RARα, RARβ, RARγ and TRα2 receptor proteins were preincubated either with (+) or without (−) equal amount of in vitro synthesized RXRα protein at room temperature for 10 minutes. Following this preincubation, the reaction mixtures were incubated with ^32p-labelled palindromic TRE (for 1 sequence see FIG. 2a) and analyzed by gel retardation assay as described in Experimental Procedures. […] As a control, equal amounts of TRα and RARα proteins were also mixed and incubated with labelled TRE.
as §1

[5] = molecular target: T2, RARγ (UniProt P13631 P13631:1-454); assay: EMSA; no detectable complex under conditions used; details: label: 32P
T2 sequence: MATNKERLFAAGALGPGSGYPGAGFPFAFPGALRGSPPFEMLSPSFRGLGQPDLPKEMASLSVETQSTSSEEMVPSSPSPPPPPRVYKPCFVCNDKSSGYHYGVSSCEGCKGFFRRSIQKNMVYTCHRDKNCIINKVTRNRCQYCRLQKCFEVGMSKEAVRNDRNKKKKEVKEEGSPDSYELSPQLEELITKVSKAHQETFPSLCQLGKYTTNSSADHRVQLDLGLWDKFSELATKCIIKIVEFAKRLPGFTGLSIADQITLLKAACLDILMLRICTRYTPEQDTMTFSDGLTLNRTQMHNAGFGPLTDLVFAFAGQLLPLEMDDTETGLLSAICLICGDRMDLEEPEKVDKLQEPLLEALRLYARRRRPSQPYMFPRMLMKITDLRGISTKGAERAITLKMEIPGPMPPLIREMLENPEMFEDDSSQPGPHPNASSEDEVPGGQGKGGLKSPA
Procedure: as §2, §1

[6] = molecular target: TRα/RXRαm4 (UniProt P10827-2;P19793 P10827-2:1-410,P19793:61-462, RXRα N-terminal deletion of 61 aa); assay: EMSA; faster migrating than RXRαm3 complex; details: label: 32P
Chain of TRα/RXRαm4 (P19793 62-462, stated change not applied, one chain of several): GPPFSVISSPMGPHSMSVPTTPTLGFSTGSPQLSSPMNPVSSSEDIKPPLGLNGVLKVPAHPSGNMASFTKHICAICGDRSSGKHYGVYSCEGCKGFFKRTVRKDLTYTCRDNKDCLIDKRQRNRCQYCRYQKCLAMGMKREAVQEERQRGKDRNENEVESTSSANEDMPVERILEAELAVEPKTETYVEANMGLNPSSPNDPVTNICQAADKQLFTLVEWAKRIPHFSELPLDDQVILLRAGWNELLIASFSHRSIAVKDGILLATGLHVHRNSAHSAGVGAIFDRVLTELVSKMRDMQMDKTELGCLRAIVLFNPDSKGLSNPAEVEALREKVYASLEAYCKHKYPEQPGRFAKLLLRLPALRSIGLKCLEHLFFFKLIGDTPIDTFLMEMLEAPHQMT
Procedure: as §1, with “In” for “In vitro translated receptor protein (1 to 5 μl depending on the translation efficiency) was incubated with the ^32P-labeled oligonucleotides in a 20-μl reaction mixture containing 10 mM hepes buffer, pH 7.9, 50 mM KCl, 1 mM DTT, 2.5 mM MgCl, 10% glycerol, and 1 μg of poly(dI-dC) at 25° C. for 20 minutes. In”

Chain of Flag-TRα/RXRα heterodimer (P19793 whole entry, one chain of several): as the sequence (P19793 whole entry, chain 2 of 2, one chain of several) above

B1: palindromic TRE (dsDNA)
DNA 1: GATCTCAGGTCATGACCTGAGATC
DNA 2: GATCTCAGGTCATGACCTGAGATC
- binding result [1]: binds
- binding result [2]: binds
- binding result [3]: binds
- binding result [4]: no binding
- binding result [5]: no binding
- binding result [6]: binds
